Assay results reported in article PMC4041461, “Identification and characterization of RNA guanine-quadruplex binding proteins”.

What was measured:
Δnucleolin = Δnucleolin (Homo sapiens, UniProt P19338 284-710, del1-283); assay: SPR; SPR: 25 °C, 1:10 mixture of binding buffer (10 mM Tris-HCl pH 7.5, 150 mM KCl) and HBS-EP (10 mM HEPES pH 7.4, 150 mM NaCl, 3 mM EDTA, 0.005% P20), protein immobilized; pull-down: RNA on streptavidin beads blocked in 10 mM Tris-HCl pH 7.5, 100 mM KCl, 0.1 mM EDTA, 1 mM DTT, 0.01% Triton X-100, BSA, tRNA; extract 1 h at 30 °C, elution 400-2600 mM KCl; settings: protein: recombinant, tags: N-terminal His-tag (pET28a), label: biotin
U2AF65 = U2AF65 (Homo sapiens, UniProt P26368 1-475); assay: as above; settings: protein: recombinant, tags: N-terminal His-tag (pET28a), label: biotin
EFHD2 = target: T1, EFHD2 (Homo sapiens, UniProt Q96C19 1-240); assay: SPR; 100 nM RNA; SPR: 25 °C, 1:10 mixture of binding buffer (10 mM Tris-HCl pH 7.5, 150 mM KCl) and HBS-EP (10 mM HEPES pH 7.4, 150 mM NaCl, 3 mM EDTA, 0.005% P20), protein immobilized; pull-down: RNA on streptavidin beads blocked in 10 mM Tris-HCl pH 7.5, 100 mM KCl, 0.1 mM EDTA, 1 mM DTT, 0.01% Triton X-100, BSA, tRNA; extract 1 h at 30 °C, elution 400-2600 mM KCl; settings: protein: recombinant; tags: N-terminal His-tag (pET28a); label: biotin; parallel G4, several variants possible
T1 sequence: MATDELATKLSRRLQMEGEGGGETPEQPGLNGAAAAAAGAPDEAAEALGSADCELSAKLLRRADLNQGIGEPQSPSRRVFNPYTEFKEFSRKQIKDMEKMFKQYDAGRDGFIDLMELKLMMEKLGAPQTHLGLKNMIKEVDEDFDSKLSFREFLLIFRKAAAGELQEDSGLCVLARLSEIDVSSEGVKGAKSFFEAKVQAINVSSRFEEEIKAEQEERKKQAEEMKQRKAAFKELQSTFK

SRSF1 = SRSF1 (Homo sapiens, UniProt Q07955 1-248); assay: as above; settings: protein: recombinant; tags: N-terminal His-tag (pET28a); label: biotin; parallel G4, several variants possible
[1] = parallel G4, several variants possible

Sequence of Δnucleolin (P19338 284-710, stated change not applied): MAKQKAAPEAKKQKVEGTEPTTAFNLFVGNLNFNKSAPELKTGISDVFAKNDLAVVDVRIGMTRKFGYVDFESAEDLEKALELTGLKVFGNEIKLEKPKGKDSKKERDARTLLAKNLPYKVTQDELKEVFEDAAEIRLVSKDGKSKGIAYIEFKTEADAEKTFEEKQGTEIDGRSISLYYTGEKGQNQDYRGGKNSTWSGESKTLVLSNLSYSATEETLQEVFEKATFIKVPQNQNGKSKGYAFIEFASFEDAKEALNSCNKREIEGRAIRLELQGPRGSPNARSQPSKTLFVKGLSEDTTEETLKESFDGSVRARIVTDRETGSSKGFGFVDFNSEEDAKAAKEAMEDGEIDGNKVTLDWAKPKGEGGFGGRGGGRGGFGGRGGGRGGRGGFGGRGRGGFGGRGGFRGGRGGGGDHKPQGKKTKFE
Sequence of U2AF65 (P26368 whole entry, one chain of several): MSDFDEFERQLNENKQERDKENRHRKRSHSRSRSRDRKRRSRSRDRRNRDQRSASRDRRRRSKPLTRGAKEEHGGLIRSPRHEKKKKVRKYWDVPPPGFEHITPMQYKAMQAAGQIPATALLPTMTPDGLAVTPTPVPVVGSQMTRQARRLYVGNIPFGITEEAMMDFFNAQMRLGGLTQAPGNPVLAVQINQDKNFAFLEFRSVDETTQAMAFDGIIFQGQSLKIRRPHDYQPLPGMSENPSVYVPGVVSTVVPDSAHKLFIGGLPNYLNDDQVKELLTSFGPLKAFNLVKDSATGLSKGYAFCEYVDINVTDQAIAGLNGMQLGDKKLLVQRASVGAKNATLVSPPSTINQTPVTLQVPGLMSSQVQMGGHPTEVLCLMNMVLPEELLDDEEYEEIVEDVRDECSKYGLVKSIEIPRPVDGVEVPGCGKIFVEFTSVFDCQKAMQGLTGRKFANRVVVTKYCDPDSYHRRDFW
Sequence of SRSF1 (Q07955 whole entry): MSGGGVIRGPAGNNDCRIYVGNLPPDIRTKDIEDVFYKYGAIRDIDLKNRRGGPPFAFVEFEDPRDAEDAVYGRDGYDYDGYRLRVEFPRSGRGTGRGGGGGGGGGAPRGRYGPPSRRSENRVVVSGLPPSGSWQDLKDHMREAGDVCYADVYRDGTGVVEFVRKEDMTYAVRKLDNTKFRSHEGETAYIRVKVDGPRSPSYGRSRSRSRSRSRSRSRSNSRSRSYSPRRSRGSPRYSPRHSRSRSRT

## AGCCGUAGACUGAGCGAAGACCGAGCUUGU (ssRNA, 3' biotin) [ARPC2 mut]
Δnucleolin; no G4
  Kd: 83 nM

## AACGAGGGAGGGAGGGAGAGGGAGAGA (structured_RNA, 3' biotin) [MMP16 GQ]
Δnucleolin; parallel G4 (CD, UV melting)
  Kd: 2 nM
U2AF65; parallel G4 (CD, UV melting)
  Kd: 5 nM

## AACGAGAGAGAGAGAGAGAGAGAGAGA (ssRNA, 3' biotin) [MMP16 mut]
Δnucleolin; no G4
  Kd: 0.6 nM

## AGCCGGGGGCUGGGCGGGGACCGGGCUUGU (structured_RNA, 3' biotin) [ARPC2 GQ]
EFHD2
  binding result: binds
SRSF1
  binding result: binds
Δnucleolin; [1]
  Kd: 0.6 nM
U2AF65; [1]
  Kd: 1 nM
